Results reported in patent publication US7037663B2, “Human zona pellucida protein 3 and uses thereof” (Eastern Virginia Medical School, priority 1998, dated 2006).
Several values for one entry are separate records, joined by “and”; a condition that tells them apart may be missing. Equal values may be shown once. Read-outs that look alike come from different tables or passages of the source.

Columns and labels:
[1] = Aggregation of purified glycoprotein on freezing; type: physicochemical; settings: freezing the purified product
Excerpt: In the zona pellucida, ZP3 associates with ZP2 and ZP1 to form a network structure (Wassarman, 1988). This network structure prevents aggregation of these glycoproteins. However, in solution these glycoproteins tend to aggregate together. This phenomenon has been observed in several recombinant glycoproteins, including ZP3 (Champan and Barratt, 1997). In purifying rhZP3, we have avoided this problem by obtaining a highly purified product, and testing its biological activities within a week-period while maintaining the protein at 4° C. […] This problem becomes worse as larger amounts of the glycoprotein are trying to be produced. Different strategies are being looked into in order to produce and purify large amounts of biologically active rhZP3 in our laboratory.

[2] = Isoelectric focusing electrophoresis; type: physicochemical; settings: ampholytes pH 3-10 and pH 4-8
Experimental: For further biochemical analysis, isoelectric focusing electrophoresis was performed. Approximately five microgram of recombinant ZP3 was loaded into an isoelectrophoresis tube with ampholytes (pH 3-10) in a wide range, and ampholytes (pH 4-8) in a narrow range. The same amount protein sample isolated from the PA-1 cells without transfected with hZP3 cDNA was used as a control.

[3] = test system: sperm-zona pellucida binding; test: Competitive hemizona assay (HZA), second series; type: cell-based, human
Experimental: Measurement of sperm-zona pellucida binding-Salt-stored, immature (prophase I) human oocytes were used in the experiments. Oocytes were desalted and microbisected into matching halves (hemizonae) using a micromanipulator (Narishige, Tokyo, Japan) following techniques published elsewhere (10, 11, 19). Control and test sperm droplets (100 μl each of a final dilution of 0.5×10^6 motile sperm/ml 1 hour post-swim-up) were incubated separately under heavy mineral oil (Sigma) with a hemizona from the same matching pair for 4 hours at 37° C. in 5% CO2 in humidified air. After the co-incubation period, the hemizonae were washed to remove loosely attached sperm using a finely drawn glass pipette, and the sperm tightly bound to the outer zona surface were counted under phase microscopy (×200). The hemizona assay index (HZI) was calculated as follows: # of sperm bound for test sample/# of sperm bound for control sample×100. An HZI of 100 indicates no inhibition whereas an HZI of 0 reflects complete inhibition of binding.
Swim up sperm were incubated with rhZP3 (test, at a final concentration of 0, 10, 30, 100, 250, 500 or 2,000 ng/ml of protein) or in culture medium (control) for 30 min under identical conditions. After 30 min, a hemizona was added to the test sperm droplet whereas the matching hemizona from the same pair was added to the control sperm droplet. Three pairs of matching hemizonae were tested per rhZP3 concentration per semen sample in a total of three ejaculates from different donors.
Additional competitive HZAs were performed where the test sperm droplet (rhZP3) was assessed against control sperm droplets of culture medium from non-transfected PA-1 cells (NT). Also, competitive HZAs were carried out where the test sperm droplet (culture medium from non-transfected PA-1 cells, NT) was assayed against sperm culture medium. Three pairs of matching hemizonae were tested per dose per experiment in a total of three different ejaculates. These studies were carried out in order to examine the specificity of the effect of the rhZP3.

concentration range of highest (maximal) inhibition of binding [3]: 500 to 2000 ng/mL
minimally effective dose, inhibition of binding under HZA conditions ([3]; 30 min pre-incubation): 30 ng/mL
highest inhibition of binding ([3]; in the range of 500-2,000 ng/ml): approximately 70%
concentration range of highest (maximal) inhibition of binding ([3]; listed as Recombinant hZP3): 500-2,000 ng/ml
HZI (Hemizona index) ([3]; test reagent 30 ng/mL versus 30 ng/mL NT): 44.5 ± 3.6
HZI (Hemizona index) ([3]; test reagent 30 ng/mL versus Ham's F-10/0.5% HSA): 43.6 ± 3.3
HZI (Hemizona index) ([3]; test reagent 500 ng/mL versus 500 ng/mL NT): 41.8 ± 1.9
HZI (Hemizona index) ([3]; test reagent 500 ng/mL versus Ham's F-10-0.5% HSA): 38.0 ± 2.7
B1: rhZP3: recombinant human zona pellucida protein 3 with six-histidine tail, expressed in human ovarian PA-1 cells; secreted glycoprotein of approximately 65 Kd (protein)
chain: QPLWLLQGGASHPETSVQPVLVECQEATLMVMVSKDLFGTGKLIRAADLTLGPEACEPLVSMDTEDVVRFEVGLHECGNSMQVTDDALVYSTFLLHDPRPVGNLSIVRTNRAEIPIECRYPRQGNVSSQAILPTWLPFRTTVFSEEKLTFSLRLMEENWNAEKRSPTFHLGDAAHLQAEIHTGSHVPLRLFVDHCVATPTPDQNASPYHTIVDFHGCLVDGLTDASSAFKVPRPGPDTLQFTVDVFHFANDSRNMIYITCHLKVTLAEQDPDELNKACSFSKPSNSWFPVEGSADICQCCNKGDCGTPSHSRRQPHVMSQWSRSASRNHHHHHH
aggregation on freezing (in words) [1]: problems of aggregation of the glycoprotein as we attempted freezing the product
isoelectric point (PI) [2]: 4.60±0.05 and ~5.60
isoelectric point (PI) ([2]; listed as recombinant human ZP3): 4.6±0.05
